Measured values: the supplement of paper PMC12042874
± gives the uncertainty stated by the source.

Experiment: amyloid nucleation score (Sup35N fusion, yeast selection) (log enrichment); library NNK3; higher = more nucleation; inactive = no reads after selection
Outline: (§1)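 Peptides of 20 random codons, each fused to Sup35N, were expressed in psi-negative yeast. Cells were induced with 100 μM copper sulfate for 24 hours and grown 7 days at 30°C on medium lacking adenine and uracil, and plasmid inserts before and after selection were Illumina-sequenced. Nucleation scores are DiMSum log enrichments of output over input reads, centred on the mode score of non-aggregating sequences, and sequences under 100 input reads were excluded.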

Substance | amyloid nucleation score
STIYKPVYFRVVTGFLMW | inactive
IVDAIILWCSKILIWVGIGQ | inactive
FCHVRMLAISTIYGSSVEVF | inactive
GPSLYINLMRVGCRRGHLFL | 1.46 ± 0.12
LVKTCRYRGSDLSVLVGVRI | inactive
AFMVKYSSVLYVCNLALGRA | inactive
ICGCPTYCNEANLLLERN | inactive
CQSVLCAKFLVSERH | inactive
SGRCRSGRQAIRCCILLNVL | inactive
TLRNGQMTIGYCSKGISEVG | inactive
FVCSARYNSFRFKATVHNSR | inactive
YCNMVWT | inactive
SGYCYGFVMNDGHSSVRGDE | -0.215 ± 0.74
RLSIAASFLSLFRYVDFNSL | inactive
IMFSILSVMML | 1.74 ± 0.11
YRLVSLYFVLLFFGA | inactive
SWKVTMKPGNFWV | inactive
ELSFPL | inactive
VTLLWFISPFMMHWWVQRNG | -0.191 ± 1
CRQWCDWCTGSYPGYCFQC | inactive
YMAAVQSTKRNFMHCNKVGS | inactive
ECGFKKR | -0.383 ± 1.3

Substance | amyloid nucleation score
LFITLGAV | inactive
PCHPRGKRENTMRAWGRSCE | inactive
FTDFCVCGCNVFDVMFLLQS | 2.67 ± 0.056
SLSYSSLCSALMWVHVKSYD | inactive
GIQIYAMFTFSKSFMLGNWY | inactive
NGYMSRVHLCPKCFRLHGFR | inactive
AKYFKFKHNVKGVHWKHVPE | -0.074 ± 0.53
IYVGHK | inactive
TRFTACGYRKSCYWWIVF | inactive
TNDLYEFVPRAVILTSICLL | inactive
MNTRAVSVEFRYCARYFCHA | 0.142 ± 0.93
FKVNGFSATILIFKQV | inactive
LSPGTFCRVDSTPVWVNACP | -0.294 ± 0.47
SLFYHTGRS | 0.459 ± 0.15
QWFAWARQWL | inactive
TDISLCNLGKHKVLRGL | inactive
MRYSFRCF | inactive
GGSLYACRGTLRLSNTNVKA | inactive
YQWNIMLKIDCSIDVVVVSN | 0.827 ± 0.27
FSGRMVFNPPIISCSYSWSW | inactive
GMSLECNFIYL | 1.84 ± 0.1
VALLDSHGKWFMLGQFLNLK | inactive

Substance | amyloid nucleation score
TTGPYLSATEHTVGHLR | inactive
CVATNYSYCSIFLHRA | 2.01 ± 0.079
TCNKLIVRLCDAHKERA | 0.745 ± 0.13
SALKGLTRELSVRVY | inactive
SMGLFDTQFVGELHVASRLF | inactive
DRWVQAGSHTFTFLWDCERA | inactive
CSTFNFRGNTIHLNLCWEVI | 0.424 ± 0.71
FKVAH | inactive
INDLKGVVLNIWIKYIV | 0.602 ± 0.14
AGDGHLSLS | inactive
SPKFVRWGRQVVSSVRA | inactive
TCSVTEMVTL | inactive
WGCEIRANLLITSWVSVTVG | inactive
VGDVFSKRCHMRLFMNSLER | inactive
RMESTYGYVLDVSIEVLWGI | inactive
LDAYDSLLFL | inactive
CCLPSYSVGCRASGDDSW | inactive
TVMDVLCECYMIVFRG | 0.875 ± 0.13
GTPALCQ | inactive
KLFGRCNSNSPIVGWIRCGL | inactive
YVFKYVEEVSHFSLFLWTKS | inactive
DLYQPDS | inactive

Substance | amyloid nucleation score
WIAVPRVGTWVGEKMS | inactive
LYSHSGSFSIGSQFNFVWFT | 1.44 ± 0.14
EATWMSLRYV | inactive
CIGFGCLLIVHLPIYACPWC | inactive
ANCVALTIVSYQVARDMKSK | 1.36 ± 0.087
FLMRCISLGGTGANFLLELS | inactive
NTHMRAIMNPLDVSVPRPHK | inactive
DHVGCATNRSDVDVTVFV | inactive
IMLKL | inactive
KLDLKCIIRHWV | inactive
PFSRYPVGCLGVSPYRVISS | inactive
GIGVSESRCVTVIWYYGGAV | inactive
ILLFYLSLKRCSLQARGLDS | -0.659 ± 1.8
VFFFMELEYSYFEY | inactive
TWRYWFKLESYNVYWRLLPA | -0.582 ± 1
LSAIFLCLSVCLGLHCVGLP | inactive
LDNKFSALGCFANARFK | inactive
RVREPSVAVRECWCYLGDAV | inactive
LWKMILGTFMTQMCL | inactive
VSGSKWQLREGVAKYMMCRY | inactive
KSREWLLSYFCYGW | inactive
AKSKSIRERLVVFEASQTRY | inactive

Substance | amyloid nucleation score
ADPSMVNVICHGLSDRGSY | inactive
CQPSF | inactive
KTSIRRCLSIRC | inactive
NYNYNRSAHSGCPPGLEGVM | inactive
KGLSLGCIFKGLEFREQGVE | inactive
FIMMRIMSFPISHVCV | 0.708 ± 0.27
LDFKIPRN | inactive
WGNLCQSGALCCQEGC | inactive
SLFIYGHYEHKHSGSLKFFA | inactive
SVNSGVMIAEPDLRWCGSAT | inactive
YRGVDLYVGVKLIRTYRVVR | inactive
WMMRD | inactive
LINVELYLPGLRRIWAPSSG | 0.221 ± 0.54
KNIKTSIIYSYYALIIR | 2.47 ± 0.074
DVRKRSFIYVCNRSLVVPFR | inactive
YYMLWSKCCEYSAHRN | inactive
LFKYGALLCVEVQY | inactive
FSMVCSFKWL | inactive
SHIDAIAQGNTVSSCGYV | inactive
KTSAVRLATNIVLTFHSILY | inactive
CIHTPDRCKVCNGITFDGRC | inactive
HVVFLSSMVATTLLWFG | 1.26 ± 0.12

Substance | amyloid nucleation score
RYNLSFFLYFSQANNHQNLF | inactive
ETSVTAHHLGIGVLLRFQQ | inactive
TCCVIICEFLRRMVSAQSSL | 0.758 ± 0.28
HSVFISLGMFRPVTSYL | inactive
LRTTDSGSGIYLTNSVHGFV | inactive
FSWMC | inactive
CGTTVGFLMLYLSCIRWL | inactive
SYCWRVSHGEYH | inactive
RCVRVIFSVMGDWVFISKNE | inactive
SPGLMRYRRTPLAKSLPWMK | inactive
SYRIRCYAVNITPIAMYIIC | inactive
NWVQSSMNQ | inactive
TFVLRDTDVCKCSSYKRPNF | inactive
FVKLKYINFGCLRGCESGCL | 1.42 ± 0.13
GGRYTVAAEVKVTHAYATG | inactive
NWYLALSGLVLSPYRGIRSG | inactive
VWTLAAVYYIIVRYSHKIRK | inactive
YWSNPYSYKFYEFMIHTALQ | inactive
STYFLLILFEGKCFNCSVGK | 1.38 ± 0.077
YRSNEFISD | inactive
FIWTFK | 1.35 ± 0.092
SLGSCTMFSFSIFWISVQSV | 1.34 ± 0.084

Experiment: amyloid nucleation score (Sup35N fusion, yeast selection) (log enrichment); library NNK2; higher = more nucleation; inactive = no reads after selection
Outline: as §1

Substance | amyloid nucleation score
NLTFACVVYANWVILTHGAR | 6.336 ± 0.061
FVHVPPILGAAVTVRAASPK | 0.284 ± 1.1
SWCFYMKGEWWYLLFHSNRS | -1.73 ± 0.55
VYGFP | 7.112 ± 0.048
VTYFNVYSYCKYSAKGRCAS | 6.22 ± 0.081
LVSNHASYFIQI | 7.467 ± 0.035
LVKVHSISMLINSYLGEFCL | 0.045 ± 0.79
PCRLHLAWIVSLMT | 4.21 ± 0.067
LCPYYNLWS | inactive
YCHPILMRYKPVYTCHYSLM | 4.86 ± 0.053
ILSPTSL | 1.26 ± 0.52
CGYLSNRSDNRCDLLYACFR | 0.571 ± 0.36
GSWHDWHRCRSLRYDQTNTS | -0.185 ± 0.39
LTNKLELNLGASIADSVGNN | -0.89 ± 0.49
KCLFES | 0.144 ± 0.77
LLVYAQLYRVWVWF | -0.134 ± 0.22
RFIND | -0.703 ± 1
ASFCNVWGDNVWRYTLLRFK | inactive
FCRSVILSVQMLFKYAIYRF | -1.37 ± 1.1
ILSNMGSMVFTLCNRDSMLR | -0.523 ± 1
NMLWASMYH | -0.546 ± 0.42
LYVYMCIPLDYLSSRVDSKR | 5.67 ± 0.094
NDKCKLVLIGLDFNELVQPS | -0.708 ± 1.1
FRDCYCRVVAPYDLHFVCTW | 0.573 ± 0.15
LYCSSLFKVYRGVQTRAKLR | inactive
NKMGVKVYTRIAQHSGHLFA | 5.21 ± 0.094
VRFEELTEY | -0.171 ± 1
VNVIFHEYNVDAG | 4.02 ± 0.12
